{"source": "the DeepSol protein solubility set"}
{"assay": "soluble on expression in E. coli; label from the status in PepcDB or PDB records"}
{"sequence": "MSLENICDMNNKVKVAVLDTGIDKEHDYLKDNLVGGIAFECMHDYIFISDKFDDEDGHGTACASIIKKEYEDVELFVIKILRKDGITNIKVLEEALRYLLDTNIRLINLSLSVIGVESVKGLFEVCYELFRKGKIIVCSLANDFDLSYPAMFNNVIGVRGFTLDGDDSFWYNKKYDVQCVMDSNSYISCDINNSYRLPPKCNSYLSAKLTGKIAKILSEKPGITISDLNDKLESLATRNHWDSCDFDECSRIVNFKLDLYDKENALFEGHHHHHH", "soluble on expression in E. coli": "soluble"}
{"sequence": "MSLEPDELFDIEMRLLLHGVRQVYGHDFTDYSEASIKRRITQWFATSGYGTLSEAQAAILRNREAFDSLLRGITVNVSEMFRDPAFFRALREEIVPHLKTYPFVKIWHAGCSSGEEAYSLAILLEEEGMKGRFRMYATDINNEVLQNAREGIFPLKEMQKYTRNYQAAGGKGAFSDYYLARYEHAIMIQSLRDQIVFASHNLAVDADFGEMHLILCRNVLIYFKPTLKERVLRLFDTCLIPGGFLCLGLKESLDGRRIASRYAETVERMRIYRKSYGQEQSEGHHHHHH", "soluble on expression in E. coli": "not soluble"}
{"sequence": "MSLEPYRPICQNRPICGKIPRLNLTEGDTVLDREGYRPNVGIILINERNEVFWGKRVREHSWQFPQGGIKPGESPETAMYRELYEEVGLLPQHVKIVGRTRDWLRYDVPNNWVRREWRGSYRGQKQIWYLLRLTGRDCDVNLRATRHPEFDGWRWHQYWAPVDEVIDFKRDVYLEALKELSSRFLRGMESYEDFAARQPSGNREGHHHHHH", "soluble on expression in E. coli": "soluble"}
{"sequence": "MSLEQSDRDRPLADRMRPRTLDEFAGQEHILAPGKPLRVQIDRDDIGSLIFWGPPGVGKTTLAKIIAAMTHADFIEFSAVLSGIKEIKQVMADAERVRQYGTRTILFVDEIHRFNRAQQDAFLPHVERGNIKLIGATTENPSFEVNSALLSRSRVYTLTPLTEEQIVGLLRRALTDTERGLAELHVTAEDIALARIAAYASGDARSGYNVLEVAAQAAGATSERIITEQIVADALQRRVLRYDKSGEEHYNLISALHKSVRNSDPDAALYWLARMIESGEDALYIARRVVRMAVEDIGLADPNALALTLAAKDAIDFLGMPEANLALAQAVVYLSIAPKSNALYTAYGDVQADVEKTAADPVPLHLRNAPTKLMKEIGYGSGYQYAHDLEAKVADMQCLPDNLKDRVYYHPTDQGIEQRIRTRLEEIRREGHHHHHH", "soluble on expression in E. coli": "soluble"}
{"sequence": "MSLERTTHQSLNGSWQFQPVAATLHVTPQLQAPAGGWKKINVPDNWYRQGHDISGYAWYQTRFALDAHNASRVAHLVFHGVDYSADVWLNDRYLGHHTGYFQPFEFDVTGLVKPGENQLRVLVNSPLEQPQDWSLHKRLVKGIFSHHDTRPGGAWSERGQEKNTGGIWAPVELQFADRAAVRQLQVTPRKQATEANPQQWVVSTEADIHHDVSHETSVTVEARILPENFKGASFAFKQSQTLQPGGNHIAFSFPVDNPALWWPYEYGHPNLYRLELSVKDASGKLLDQREQVFGVREVKVDDGLQWFINGRRMFLRGTNYIASQWLAEMTPDRYRRDLEMMQAAHINAVRVHAHVTGQDFYELCDRMGILVTQDFPLLWGYSDDPDFIAEARRQAKDMVQLLQRHPSIISWTMHNEPPWDSPWMAQKYPDYHPDINRRLDALLYEDVSKLDTLRVVRKESATKEHEWMGWYFDHWLAFSRPAPTPWSTEFGAQALPNLKSLERMFSKALLWPDTEAKWQVWEYHNFQRKETFEFAGVKQGGNIEEFIANSQHYQARLIQFAVENYRRQRYAPVSAVFQFMFVENWPSINWGIVDYWREPKAGYEALRVAYQPVLPSLEWKEGHHHHHH", "soluble on expression in E. coli": "not soluble"}
{"sequence": "MSLESRFCDICGKPAKTYQFGSLLCEDPECLKKAQKLRGGPAGHKLRVISVGSTNPVKVSAVEKAIEKTVGTMLVSSVDTKSGVSDQPQGFEETFKGAYNRAKGAFEKVNCVYGIGIEAGIVEIGEKKLDIHICVVYNGLDYSVGTSQAFQIPKDISDMINEGYECSKIAEETYRVKNIGQKNGIIGVLTDNNILREQLCIDSVVMAMIPKYRRNSQIREGHHHHHH", "soluble on expression in E. coli": "soluble"}
{"sequence": "MSLESTNRLRYLIAGTGGVGGSIAGFLSLAGKDVTCIARGAHLQAIQQDGLKLKSDLKGEHALRINACTAEEYNGKADVIFVCVKGYSVDSITELIKRAAHDRTIVIPILNVYGTGPRIQRLVPGVTVLDGCIYIVGFVSGPGEITQMGTIFRLVYGAHRGILVPAGLMEAVQRDLQESGIKVEISSDINRDTFIKWSFISAMAVTGAYFDVPMGEVQKPGKVRDTFIGLSTESAALGKKLGIEFKEDIVTYNLKVIDKLAPESTASMQKDIARGHESEVQGLLFDMITAAEEQGIDVPTYREVAKKFIKQEGHHHHHH", "soluble on expression in E. coli": "soluble"}
{"sequence": "MSLEVIKHDGPGRLGVIRLEPPVQTPALAGVDFTLSPFNSFFYPKDYKEYDFNLAPAIPLSYYTPDEIIKKAVKRLWEVDYSKFNAFYFPALKRTKHYEELFKIIEENDFDAIYIGNSKSMIKDYRGFVFTMRELREKFPNAVLITDLEPFFYPLAVYLGIDAFDIRSLKIYSYEGLGFTQFSPIIWDEPKEDPVEYAKKIIRLIRIAIHEGKLRYLVENFLPTSMNAGILRIADRENIEYLEKYTPVDDKTVVFISDYSMTRPEVYRWAKRVRERFEPPKDIELLLILPCSAKKPYSRSRSHTLYRSAVKEALGEKMHRVHELIVTSPYGVVPREWEWIAKYDIVVTGHWSEREVRLAGELLADVLEKYPDIPIIAHVEGGYREAVKLAMELSGRDVIFTAKGNSTTSRESLANLTKTLKEFDVRDVDKEYRRYRFYENIRKIFDFYFGLNAGYAVLPERAQVVGSKMLRLIVDNQQTGTFQEGVISVTPWGMQRIYDELHSYWVEIDFDVRGDIFAAGVGSADEKIRPNDWVGVVRDGKVVAVGRAVLSGEEMVKAKRGVAVKVKKKAKEGHHHHHH", "soluble on expression in E. coli": "soluble"}
{"sequence": "MSLEYKYELTIDKLLQSGVSSNPDQIINYTGKREFTFKDFSKRVNTLAKALISIGVKKGDRVAVIDWDTYVYLEAYFAVPMVDAVLHTVNVRYPQDLIYYTMDHAEDKYVIVRDEFVPILSKNREAFYFIKGWIVYSETGQIPDSLSPKYVYDDLMKESYSDIELPQLSENDLATTFYTSGTTGIPKGVQFTHRQIVLHSISSGLALADDPINLTSRDVIMPLVPMFHVHAWGVPYMSIMSGRRYVLPGRYDFDHIIDLIDKYNVSVIAMVPSILYLIVTNPNVKKIAGRGIKAIVGGGALPEGLANAAEKLGITAISGYGLSETAPILTLATYNERVKAMPESEKKKFRLKTGIPIPLVQLRVVDDKMNDVPKDEKTIGEIVVRAPWLTSVYVKNKEGTEALWRGDWMHTGDLAVMDEYGYIRIVDREKDAVKSGGEFIPSLVLEDAISSCSGVVENAVVGRPDEKWGERPVAFYTGTAKPDEIRKHLIEMVNAGRIAKFWIPDDFINIKEFAKTSTGKIDKKVLREMIKKEGHHHHHH", "soluble on expression in E. coli": "soluble"}
{"sequence": "MSLFKSQTAILPEAGPFALYTLLKVRQNHAHVLQALKALPALVEEINQNQPGAELTVSVAFSKGFWSHFEMASPPELIDFPELGEGETHAPSTDVDVLIHCHATRHDLLFYTLRKGISDIAQDIEIVDETYGFRYLDARDMTGFIDGTENPKAEKRAEVALVADGDFAGGSYVMVQRFVHNLPAWNRLNLAAQEKVIGRTKPDSVELENVPAASHVGRVDIKEEGKGLKIVRHSLPYGSVSGDHGLLFIAYCHTLHNFKTMLESMYGVTDGKTDQLLRFTKAVTGAYFFAPSQVMLQELTLKNQEGGSHHHHHH", "soluble on expression in E. coli": "soluble"}
{"sequence": "MSLFLIMSGAYVGQELESEFGRIPPSFLPLGNRRLFQHQVALAPQGVKVYLSLPESYVVSEIDLQWLEQNQVTIIATPDGLSLGASLVAALNISGHSLNAPLHILYGDTLFNQLPVGDDIVSVSTAKDSYNWAVLTNDDVDWLQDANTPMSHESQRIIDGYFKFSHPRELVRCITQSEWKFIAGLNRYHKSVGLSAVNSIGWLDFGHVNTYYHSKAEFTTQRAFNELTITAKWIEKSSIKNQKIAAEAYWFDNLPMAMRGFIPQYLGSQNSEGKISYRLEYLYLTALNELFVFSRLPSQIWQKILASAVEFLSLCLEQAVEPNAPINTLDILFADKTALRLNEFCAARHITLEDQWQFAGQDISLAQILRDSQKHLPDGKPLLGVLHGDFCFSNILYDFRANKIKTIDPRGMTPDGQKTLYGDIRYDLAKLSHSILGLYDWIIAGYYHVEIADNAIELKIAEQSHHKETQQGFIELIEQTFGLTAKNLYAMQIQLFLSMLPLHADDRRRQDALFANAFRLHQILLRLDQEGHHHHHH", "soluble on expression in E. coli": "soluble"}
